Blank lines part the entries; values can stand above or below the binder they belong to.
Legend:
Test in all cases: MST; YFP-fused partner constant at 100 nM, non-fluorescent protein titrated (16 two-fold dilutions); 20 mM Hepes pH 7.0, 100 mM NaCl, 1 mM EGTA, 0.5 mM TCEP, 0.05% Tween 20; Monolith NT.115
Details in all cases: both partners purified
YFP-Myosin 7a MF2 = target: T1, YFP-Myosin 7a MF2 (human, UniProt Q13402-1 1702-2215)
T1 construct: Myosin 7a, human, MF2, residues 1702-2215 of UniProt Q13402-1; pET14-YFP vector; also called ^YFPM7a MF2; source: E. coli (BL21-AI, BL21 (DE3) Rosetta or BL21-Gold (DE3)), purified (Histrap, CaptoQ, gel filtration)
T1 sequence (looked up): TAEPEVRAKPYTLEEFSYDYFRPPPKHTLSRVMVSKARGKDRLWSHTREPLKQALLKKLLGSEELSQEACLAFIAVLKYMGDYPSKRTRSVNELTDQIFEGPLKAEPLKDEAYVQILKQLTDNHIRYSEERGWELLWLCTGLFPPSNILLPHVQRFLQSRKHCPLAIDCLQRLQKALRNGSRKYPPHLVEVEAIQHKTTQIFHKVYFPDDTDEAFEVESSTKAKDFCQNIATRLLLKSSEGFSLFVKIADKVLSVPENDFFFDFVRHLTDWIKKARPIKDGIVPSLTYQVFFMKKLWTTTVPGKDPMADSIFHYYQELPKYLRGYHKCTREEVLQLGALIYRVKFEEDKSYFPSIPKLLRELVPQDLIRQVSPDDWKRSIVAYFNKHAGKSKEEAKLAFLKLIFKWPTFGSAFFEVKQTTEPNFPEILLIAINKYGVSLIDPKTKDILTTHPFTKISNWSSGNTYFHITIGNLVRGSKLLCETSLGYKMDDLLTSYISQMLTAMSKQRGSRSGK

YFP-Harmonin NPDZ1.PDZ2 = target: T2, YFP-Harmonin NPDZ1.PDZ2 (human, UniProt Q9Y6N9-1 1-301)
T2 construct: Harmonin-a1 (USH1C), human, residues 1-301 of UniProt Q9Y6N9-1; also called ^YFPNPDZ1.PDZ2; source: E. coli BL21 (DE3) Rosetta, purified (Glutathione Sepharose 4B, size-exclusion chromatography)
T2 sequence (looked up): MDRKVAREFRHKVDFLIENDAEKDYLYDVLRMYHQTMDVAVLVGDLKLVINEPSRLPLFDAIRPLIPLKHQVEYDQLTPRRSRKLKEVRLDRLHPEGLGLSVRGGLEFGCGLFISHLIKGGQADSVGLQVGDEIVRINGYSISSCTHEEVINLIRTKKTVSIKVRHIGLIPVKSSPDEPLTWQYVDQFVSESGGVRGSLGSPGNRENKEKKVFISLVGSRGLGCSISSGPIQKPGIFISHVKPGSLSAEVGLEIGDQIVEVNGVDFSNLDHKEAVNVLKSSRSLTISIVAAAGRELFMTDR

Myosin 7b MF2 L2083W = target: T3, Myosin 7b MF2 L2083W (human, UniProt Q6PIF6 1605-2116, L2083W)
T3 construct: Myosin 7b, human, MF2, residues 1605-2116 of UniProt Q6PIF6; also called M7b MF2 L2083W; source: E. coli, purified similarly as wild type (Histrap, CaptoQ, gel filtration)
T3 sequence (looked up): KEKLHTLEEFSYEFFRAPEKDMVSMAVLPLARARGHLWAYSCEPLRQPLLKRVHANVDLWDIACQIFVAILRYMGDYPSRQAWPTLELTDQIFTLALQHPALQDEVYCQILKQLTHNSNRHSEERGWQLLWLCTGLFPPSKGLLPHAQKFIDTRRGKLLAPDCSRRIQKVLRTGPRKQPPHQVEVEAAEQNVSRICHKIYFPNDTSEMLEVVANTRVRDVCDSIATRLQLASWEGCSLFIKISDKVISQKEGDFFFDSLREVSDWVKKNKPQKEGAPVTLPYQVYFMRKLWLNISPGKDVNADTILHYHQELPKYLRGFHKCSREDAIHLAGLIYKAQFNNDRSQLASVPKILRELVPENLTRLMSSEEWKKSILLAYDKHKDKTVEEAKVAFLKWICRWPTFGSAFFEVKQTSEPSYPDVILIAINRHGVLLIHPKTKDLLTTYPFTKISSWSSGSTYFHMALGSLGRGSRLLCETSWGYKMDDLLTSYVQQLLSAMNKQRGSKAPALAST

Harmonin NPDZ1.PDZ2 = target: T4, Harmonin NPDZ1.PDZ2 (human, UniProt Q9Y6N9-1 1-301)
T4 construct: Harmonin-a1 (USH1C), human, N-terminal domain, PDZ1 and PDZ2, residues 1-301 of UniProt Q9Y6N9-1; source: E. coli BL21 (DE3) Rosetta, purified (Glutathione Sepharose 4B, size-exclusion chromatography)
T4 sequence (looked up): T2 sequence (looked up)

[1] = target: T5, Harmonin NPDZ1 (non-fluorescent, as used in MST and SEC-MALS) (human, UniProt Q9Y6N9-1 1-197)
T5 construct: Harmonin-a1 (USH1C), human, N-terminal domain and PDZ1, residues 1-197 of UniProt Q9Y6N9-1; source: E. coli BL21 (DE3) Rosetta, purified (Glutathione Sepharose 4B, size-exclusion chromatography)
T5 sequence (looked up): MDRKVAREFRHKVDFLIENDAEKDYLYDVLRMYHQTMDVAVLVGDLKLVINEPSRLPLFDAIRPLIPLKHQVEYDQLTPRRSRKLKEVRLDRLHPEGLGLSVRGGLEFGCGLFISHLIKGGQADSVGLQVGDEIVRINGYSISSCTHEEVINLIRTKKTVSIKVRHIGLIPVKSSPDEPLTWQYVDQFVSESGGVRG

Kd (YFP-Myosin 7a MF2): 1400 ± 200 nM | Kd (YFP-Harmonin NPDZ1.PDZ2): 5.2 µM
B1: Harmonin-a PDZ3c (non-fluorescent, as used in MST) (domain or fragment, human, UniProt Q9Y6N9-1 428-552, looked up)
chain: QDFRKYEEGFDPYSMFTPEQIMGKDVRLLRIKKEGSLDLALEGGVDSPIGKVVVSAVYERGAAERHGGIVKGDEIMAINGKIVTDYTLAEAEAALQKAWNQGGDWIDLVVAVCPPKEYDDELTFF
notes: Harmonin-a1 (USH1C), human, PDZ3 plus C-terminal peptide, residues 428-552 of UniProt Q9Y6N9-1; The methods say only that samples for ITC or crystallisation were digested with TEV protease; also called PDZ3c (isoA); source: E. coli BL21 (DE3) Rosetta, purified (Glutathione Sepharose 4B, size-exclusion chromatography)

Kd (Myosin 7b MF2 L2083W): > 300 µM | Kd (Harmonin NPDZ1.PDZ2): 3.2 µM | Kd [1]: 14.2 µM
B2: YFP-Harmonin-a PDZ3c (domain or fragment, human, UniProt Q9Y6N9-1 428-552, looked up)
chain: B1 chain
notes: Harmonin-a1 (USH1C), human, residues 428-552 of UniProt Q9Y6N9-1; also called ^YFPPDZ3c (isoA); source: E. coli BL21 (DE3) Rosetta, purified (Glutathione Sepharose 4B, size-exclusion chromatography)

— article PMC5493754, “Myosin 7 and its adaptors link cadherins to actin” (Nature Communications, 2017)
